# Reference: patent US20120135912A1 (PERSEID THERAPEUTICS, published 2012)
# Tests used:
# [1] = biological target: T1, human VLA4-Fc (alpha4-Fc/beta1-Fc heterodimer) (human); assay: SPR (BIACORE), VLA4-Fc captured by anti-human IgG, 1 mM MnCl2, 1:1 Langmuir; standard BIACORE assay, first preparation (Table 5A); KD ratio relative to human 2D-VCAM-1
# T1 construct: Soluble heterodimer from CHO cells, Protein A purified; also called VLA-Fc
# Method: The kinetic 2D-VCAM-1 assay measures binding kinetics of a dimeric ligand (e.g., VLA-Fc fusion protein or LPAM-1-Fc fusion protein) coated to sensor chips and monomeric analyte (e.g., 2D-VCAM-1 variant polypeptides) in the mobile phase. Goat anti-human IgG antibody (Jackson ImmunoResearch, Catalog No. 105-005-098) was immobilized on CM-5 sensor chips (GE Healthcare, Catalog No. BR-1000-14) according to the manufacturer's protocol. Antibody was diluted to 30 μg/ml in immobilization buffer (10 mM sodium acetate, pH 5.0 (GE Healthcare, Catalog No. BR-1003-51)). […] Un-reacted sites were quenched with 35 μl of 1 M ethanolamine-HCl pH 8.5 (GE Healthcare, Catalog No. BR-1000-50). This procedure typically yielded 15,000 response units (RU) of coupled antibody. VLA4-Fc or LPAM-1-Fc, prepared as described in Examples 3 and 4, respectively, were bound to antibody-coated sensor chips by injection of 20 μl of ligand solution (20 μg/ml protein in HBS-P-Mn buffer at a flow rate of 10 μl/min). Ligand capture levels were typically 200-300 RU. […] Typically, 8 dilutions of 2D-VCAM-1 variant polypeptides ranging from 150 nM to 0.069 nM were analyzed against a blank reference (HBS-P-Mn buffer alone).
# [2] = biological target: T2, human VLA4 (integrin alpha4beta1) on the surface of U937 cells (human, UniProt P13612 34-1032; P05556 21-798); assay: static cell adhesion assay: U937 cells on immobilized 7D-VCAM-1 in the presence of the soluble polypeptide; blocked ligand: immobilized 7D-VCAM-1 (Example 13)
# T2 construct: whole, on cells; Endogenous VLA4 of U937 cells; assay buffer held 1 mM each of CaCl2, MgCl2 and MnCl2; also called cell-surface human VLA4
# T2 sequence (P13612 34-1032, chain 1 of 2): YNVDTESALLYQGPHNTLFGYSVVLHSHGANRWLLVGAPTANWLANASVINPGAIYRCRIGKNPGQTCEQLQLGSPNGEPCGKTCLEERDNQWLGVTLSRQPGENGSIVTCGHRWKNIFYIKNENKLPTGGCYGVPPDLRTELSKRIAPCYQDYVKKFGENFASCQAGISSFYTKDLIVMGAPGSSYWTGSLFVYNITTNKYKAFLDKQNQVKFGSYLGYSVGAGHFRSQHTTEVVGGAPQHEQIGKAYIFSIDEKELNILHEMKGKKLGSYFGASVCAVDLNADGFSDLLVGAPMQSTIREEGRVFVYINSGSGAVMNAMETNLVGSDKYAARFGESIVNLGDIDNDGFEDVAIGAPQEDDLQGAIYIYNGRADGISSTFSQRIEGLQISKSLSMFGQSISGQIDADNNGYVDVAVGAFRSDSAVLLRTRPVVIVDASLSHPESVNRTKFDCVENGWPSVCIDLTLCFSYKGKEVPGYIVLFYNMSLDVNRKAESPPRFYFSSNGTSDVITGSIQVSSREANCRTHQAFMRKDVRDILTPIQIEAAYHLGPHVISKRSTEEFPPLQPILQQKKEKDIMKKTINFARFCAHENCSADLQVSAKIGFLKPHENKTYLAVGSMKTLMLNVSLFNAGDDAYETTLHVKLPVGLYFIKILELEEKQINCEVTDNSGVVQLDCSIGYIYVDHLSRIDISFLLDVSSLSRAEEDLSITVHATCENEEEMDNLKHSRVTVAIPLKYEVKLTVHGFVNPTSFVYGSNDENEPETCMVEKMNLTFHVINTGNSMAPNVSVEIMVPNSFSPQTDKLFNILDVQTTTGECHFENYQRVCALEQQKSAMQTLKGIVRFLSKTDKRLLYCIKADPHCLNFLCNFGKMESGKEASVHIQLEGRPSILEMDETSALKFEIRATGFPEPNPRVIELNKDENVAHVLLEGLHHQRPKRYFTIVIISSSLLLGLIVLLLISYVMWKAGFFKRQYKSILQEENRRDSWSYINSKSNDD
# T2 sequence (P05556 21-798, chain 2 of 2): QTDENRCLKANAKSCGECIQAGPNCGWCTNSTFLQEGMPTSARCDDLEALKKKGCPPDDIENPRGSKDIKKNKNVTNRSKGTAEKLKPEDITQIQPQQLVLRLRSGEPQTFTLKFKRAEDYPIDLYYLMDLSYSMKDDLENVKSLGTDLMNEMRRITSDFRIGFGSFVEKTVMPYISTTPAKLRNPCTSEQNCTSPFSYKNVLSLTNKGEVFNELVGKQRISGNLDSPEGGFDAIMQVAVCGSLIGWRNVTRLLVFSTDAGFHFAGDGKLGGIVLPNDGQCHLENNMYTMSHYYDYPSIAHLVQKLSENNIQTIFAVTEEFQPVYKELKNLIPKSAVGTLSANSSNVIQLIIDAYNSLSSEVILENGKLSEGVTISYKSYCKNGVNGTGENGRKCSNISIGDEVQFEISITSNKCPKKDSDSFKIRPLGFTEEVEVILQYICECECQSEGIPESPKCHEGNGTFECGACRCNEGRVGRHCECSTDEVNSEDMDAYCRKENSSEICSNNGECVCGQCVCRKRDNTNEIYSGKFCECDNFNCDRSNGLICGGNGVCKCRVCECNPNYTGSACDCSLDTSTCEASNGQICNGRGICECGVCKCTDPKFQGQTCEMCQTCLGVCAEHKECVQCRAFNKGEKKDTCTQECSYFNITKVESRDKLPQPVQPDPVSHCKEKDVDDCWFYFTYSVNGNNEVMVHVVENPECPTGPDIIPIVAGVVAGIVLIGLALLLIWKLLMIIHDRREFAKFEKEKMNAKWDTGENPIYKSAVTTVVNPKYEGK
# Method: Prior to assaying, the U937 cells were re-suspended in labeling buffer (RPMI 1640 culture media without phenol red, 10% FBS; Invitrogen), then labeled with 0.5 μg/ml Calcein-AM at 37° C. for 30 minutes on a rotator. Subsequently, the cells were washed three times with labeling buffer then resuspended at 5×10^6 cells/ml in assay buffer (HEPES CaMgMn buffer: 50 mM HEPES, 150 mM NaCl, 1 mM CaCl₂, 1 mM MgCl₂, 1 mM MnCl2 pH 7.4).
# The test compounds (i.e., the 2D-VCAM-1 variant polypeptides) were diluted in dilution buffer and added to VCAM-1-coated plates. […] Plates were spun down at 280×g for 5 minutes with assay buffer decanted by inversion before measuring fluorescence intensity (excitation=485 nm, emission=530 nm) with LJL Analyst HT 96.384 (Molecular Devices, Sunnyvale, Calif.).
# FIG. 5 is a graph showing the cell adhesion index for anti-VLA4-antibody (used as a positive control for maximal inhibition of cell adherence), dilution buffer alone (“no treatment”, a control to show maximal cell adherence to the immobilized VCAM-1), 2D-VCAM-1 valiant Clone 46 (SEQ ID NO:12), Q38L-2D-VCAM-1 polypeptide (SEQ ID NO:10), and human 2D-VCAM-1 (SEQ ID NO:2). The cell adhesion index was calculated as (fluorescence intensity, VCAM-coated well)/(fluorescence intensity, non-CAM-1-coated well). […]
# T1 sequence (chain, as listed by the source limits assumed, form in doubt, chain 1 of 2): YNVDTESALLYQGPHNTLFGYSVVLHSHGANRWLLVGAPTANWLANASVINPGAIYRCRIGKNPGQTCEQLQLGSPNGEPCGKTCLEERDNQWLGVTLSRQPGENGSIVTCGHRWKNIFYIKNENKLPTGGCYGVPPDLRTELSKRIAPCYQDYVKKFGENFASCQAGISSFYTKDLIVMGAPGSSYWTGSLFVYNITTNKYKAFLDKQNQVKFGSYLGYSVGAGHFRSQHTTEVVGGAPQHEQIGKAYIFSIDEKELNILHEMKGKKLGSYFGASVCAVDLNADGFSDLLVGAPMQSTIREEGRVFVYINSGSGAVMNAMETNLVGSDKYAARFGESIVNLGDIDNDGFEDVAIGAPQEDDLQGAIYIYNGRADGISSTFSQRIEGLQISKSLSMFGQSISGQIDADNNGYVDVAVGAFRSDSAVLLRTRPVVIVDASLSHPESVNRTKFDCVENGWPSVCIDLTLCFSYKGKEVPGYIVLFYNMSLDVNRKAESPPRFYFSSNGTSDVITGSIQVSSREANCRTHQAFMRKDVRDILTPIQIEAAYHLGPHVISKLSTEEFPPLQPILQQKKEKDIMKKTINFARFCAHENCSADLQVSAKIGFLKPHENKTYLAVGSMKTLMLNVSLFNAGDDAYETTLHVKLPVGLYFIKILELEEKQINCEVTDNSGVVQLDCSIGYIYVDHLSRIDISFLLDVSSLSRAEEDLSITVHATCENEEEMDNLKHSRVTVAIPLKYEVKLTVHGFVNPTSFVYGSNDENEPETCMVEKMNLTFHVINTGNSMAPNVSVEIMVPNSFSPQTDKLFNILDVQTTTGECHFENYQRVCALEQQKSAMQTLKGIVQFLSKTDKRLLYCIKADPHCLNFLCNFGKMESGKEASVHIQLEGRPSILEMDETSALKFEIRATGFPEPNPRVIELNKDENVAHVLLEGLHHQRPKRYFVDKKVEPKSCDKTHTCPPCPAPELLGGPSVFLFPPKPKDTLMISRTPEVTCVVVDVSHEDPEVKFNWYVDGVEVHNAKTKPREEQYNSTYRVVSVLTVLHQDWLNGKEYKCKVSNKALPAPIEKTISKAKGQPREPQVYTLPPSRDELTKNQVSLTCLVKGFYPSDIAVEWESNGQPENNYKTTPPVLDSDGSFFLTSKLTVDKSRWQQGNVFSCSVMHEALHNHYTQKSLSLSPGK
# T1 sequence (chain, as listed by the source limits assumed, form in doubt, chain 2 of 2): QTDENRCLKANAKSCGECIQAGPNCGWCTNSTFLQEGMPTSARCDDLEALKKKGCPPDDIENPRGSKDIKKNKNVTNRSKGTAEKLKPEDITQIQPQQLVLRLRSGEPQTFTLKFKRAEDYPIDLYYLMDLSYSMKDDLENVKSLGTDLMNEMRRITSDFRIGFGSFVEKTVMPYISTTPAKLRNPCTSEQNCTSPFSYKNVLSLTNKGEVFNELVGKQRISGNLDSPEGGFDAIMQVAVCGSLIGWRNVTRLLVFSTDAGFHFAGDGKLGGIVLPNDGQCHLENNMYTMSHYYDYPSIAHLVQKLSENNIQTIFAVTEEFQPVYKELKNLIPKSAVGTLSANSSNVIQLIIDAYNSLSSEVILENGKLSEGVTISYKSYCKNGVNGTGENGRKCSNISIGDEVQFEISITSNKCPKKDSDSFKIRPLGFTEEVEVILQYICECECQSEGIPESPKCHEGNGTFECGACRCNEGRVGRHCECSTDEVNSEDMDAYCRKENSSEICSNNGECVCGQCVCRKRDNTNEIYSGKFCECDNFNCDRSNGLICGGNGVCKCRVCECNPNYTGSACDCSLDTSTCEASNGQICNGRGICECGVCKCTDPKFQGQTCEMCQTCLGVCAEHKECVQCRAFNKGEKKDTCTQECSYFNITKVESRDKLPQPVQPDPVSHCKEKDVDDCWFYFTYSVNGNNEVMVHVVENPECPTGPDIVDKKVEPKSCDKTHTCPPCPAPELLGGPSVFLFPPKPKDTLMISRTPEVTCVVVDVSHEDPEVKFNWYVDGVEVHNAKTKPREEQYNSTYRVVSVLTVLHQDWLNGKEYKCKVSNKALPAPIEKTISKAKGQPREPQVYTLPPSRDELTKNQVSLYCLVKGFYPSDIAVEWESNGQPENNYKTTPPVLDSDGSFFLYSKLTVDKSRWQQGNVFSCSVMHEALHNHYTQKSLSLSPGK
binding affinity for VLA4-Fc relative to human 2D-VCAM-1 [1] [fold],binding result [2],Binder
306,,"2D-VCAM-1 variant Clone 146 (ligand, not shown: small tags and cut ends) FKIETTPESRYLAQIGDSVSLTCSTTGCESPLFFWRPLLDSPLNGKVTNEGTTSTLTMNPVSFGNEHSYLCTARCESRSLEKGIQVEIYSFPKDPEIHLSGPLEAGKPITVKCSVADVYPFDRLEIDLLKGDHLMKSQEFLEDADRKSLETKSLEVTFTPVIEDIGKVLVCRAKLHIDEMDSVPTVRQAVKELQVYISP"
,binds,"Q38L-2D-VCAM-1 (ligand, also called Q38L 2D-VCAM-1 polypeptide; not shown: His tag) FKIETTPESRYLAQIGDSVSLTCSTTGCESPFFSWRTLIDSPLNGKVTNEGTTSTLTMNPVSFGNEHSYLCTATCESRKLEKGIQVEIYSFPKDPEIHLSGPLEAGKPITVKCSVADVYPFDRLEIDLLKGDHLMKSQEFLEDADRKSLETKSLEVTFTPVIEDIGKVLVCRAKLHIDEMDSVPTVRQAVKELQVYISP"
